For data set [1], the system named is HeLa Kyoto. As to the kind of experiment: thermal stability score vs G1/S (z-score of summed log2 fold changes over temperatures); higher = more thermally stable than in G1/S.
Data set [2] concerns HeLa Kyoto. As to the kind of experiment: solubility change mitosis vs G1/S (difference of NP-40 vs SDS log2 ratios) (log2 ratio difference); higher = more soluble in mitosis.
Data set [3] deals with HeLa Kyoto. Briefly: solubility in G1/S (NP-40 vs SDS abundance) (log2 ratio); higher = more soluble. The following applies: cell cycle stage: G1/S.
[4] abbreviates: cell cycle stage: early G1 (4.5 h after nocodazole release).

5 sequences from the supplement of paper PMC5998384 can be followed below.
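For solubility change mitosis vs G1/S (difference of NP-40 vs SDS log2 ratios) in this document: synchronized HeLa Kyoto cells (double thymidine block for G1/S, nocodazole release for mitosis), protein amounts in NP-40 versus SDS lysates quantified by mass spectrometry, three biological replicates.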
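For solubility in G1/S (NP-40 vs SDS abundance) in this document: HeLa Kyoto cells arrested at G1/S by double thymidine block, proteins quantified by TMT10plex mass spectrometry in mild NP-40 versus SDS extracts, three biological replicates.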
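For thermal stability score vs G1/S (z-score of summed log2 fold changes over temperatures) in this document: synchronized HeLa Kyoto cells, proteins quantified by TMT10plex mass spectrometry, three biological replicates, mitosis taken 0.5 h after nocodazole release, G1/S directly after double thymidine block.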

Take “MATAPSYPAGLPGSPGPGSPPPPGGLELQSPPPLLPQIPAPGSGVSFHIQIGLTREFVLLPAASELAHVKQLACSIVDQKFPECGFYGLYDKILLFKHDPTSANLLQLVRSSGDIQEGDLVEVVLSASATFEDFQIRPHALTVHSYRAPAFCDHCGEMLFGLVRQGLKCDGCGLNYHKRCAFSIPNNCSGARKRRLSSTSLASGHSVRLGTSESLPCTAEELSRSTTELLPRRPPSSSSSSSASSYTGRPIELDKMLLSKVKVPHTFLIHSYTRPTVCQACKKLLKGLFRQGLQCKDCKFNCHKRCATRVPNDCLGEALINGDVPMEEATDFSEADKSALMDESEDSGVIPGSHSENALHASEEEEGEGGKAQSSLGYIPLMRVVQSVRHTTRKSSTTLREGWVVHYSNKDTLRKRHYWRLDCKCITLFQNNTTNRYYKEIPLSEILTVESAQNFSLVPPGTNPHCFEIVTANATYFVGEMPGGTPGGPSGQGAEAARGWETAIRQALMPVILQDAPSAPGHAPHRQASLSISVSNSQIQENVDIATVYQIFPDEVLGSGQFGVVYGGKHRKTGRDVAVKVIDKLRFPTKQESQLRNEVAILQSLRHPGIVNLECMFETPEKVFVVMEKLHGDMLEMILSSEKGRLPERLTKFLITQILVALRHLHFKNIVHCDLKPENVLLASADPFPQVKLCDFGFARIIGEKSFRRSVVGTPAYLAPEVLLNQGYNRSLDMWSVGVIMYVSLSGTFPFNEDEDINDQIQNAAFMYPASPWSHISAGAIDLINNLLQVKMRKRYSVDKSLSHPWLQEYQTWLDLRELEGKMGERYITHESDDARWEQFAAEHPLPGSGLPTDRDLGGACPPQDHDMQGLAERISVL [PRKD2]”: the thermal stability score in data set [1] (setting [4]) was determined as 0.521; in data set [1] (cell cycle stage: mitosis), 0.296. The “solubility change mitosis (log2)” value in data set [2] was -0.188. Also, the “solubility in G1/S (log2)” value in data set [3] was -0.115.

With “MDAATLTYDTLRFAEFEDFPETSEPVWILGRKYSIFTEKDEILSDVASRLWFTYRKNFPAIGGTGPTSDTGWGCMLRCGQMIFAQALVCRHLGRDWRWTQRKRQPDSYFSVLNAFIDRKDSYYSIHQIAQMGVGEGKSIGQWYGPNTVAQVLKKLAVFDTWSSLAVHIAMDNTVVMEEIRRLCRTSVPCAGATAFPADSDRHCNGFPAGAEVTNRPSPWRPLVLLIPLRLGLTDINEAYVETLKHCFMMPQSLGVIGGKPNSAHYFIGYVGEELIYLDPHTTQPAVEPTDGCFIPDESFHCQHPPCRMSIAELDPSIAVGFFCKTEDDFNDWCQQVKKLSLLGGALPMFELVELQPSHLACPDVLNLSLDSSDVERLERFFDSEDEDFEILSL [ATG4B]”, the figures for the thermal stability score in data set [1] (setting [4]) and in data set [1] (cell cycle stage: mitosis) were -0.634 and 1.02, respectively. In addition, the “solubility change mitosis (log2)” value in data set [2] was -0.28. Moreover, in data set [3], the “solubility in G1/S (log2)” value is -0.00856.

As to “MSDILRELLCVSEKAANIARACRQQEALFQLLIEEKKEGEKNKKFAVDFKTLADVLVQEVIKQNMENKFPGLEKNIFGEESNEFTNDWGEKITLRLCSTEEETAELLSKVLNGNKVASEALARVVHQDVAFTDPTLDSTEINVPQDILGIWVDPIDSTYQYIKGSADIKSNQGIFPCGLQCVTILIGVYDIQTGVPLMGVINQPFVSRDPNTLRWKGQCYWGLSYMGTNMHSLQLTISRRNGSETHTGNTGSEAAFSPSFSAVISTSEKETIKAALSRVCGDRIFGAAGAGYKSLCVVQGLVDIYIFSEDTTFKWDSCAAHAILRAMGGGIVDLKECLERNPETGLDLPQLVYHVENEGAAGVDRWANKGGLIAYRSRKRLETFLSLLVQNLAPAETHT [INPP1]”, the thermal stability score in data set [1] (setting [4]) is 0.000408; in data set [1] (cell cycle stage: mitosis) it was -0.083. For the same sequence, the “solubility change mitosis (log2)” value in data set [2] is -0.114. The “solubility in G1/S (log2)” value in data set [3] worked out at 0.0309.

Turning to “MAGAAEDARALFRAGVCAALEAWPALQIAVENGFGGVHSQEKAKWLGGAVEDYFMRNADLELDEVEDFLGELLTNEFDTVVEDGSLPQVSQQLQTMFHHFQRGDGAALREMASCITQRKCKVTATALKTARETDEDEDDVDSVEEMEVTATNDGAATDGVCPQPEPSDPDAQTIKEEDIVEDGWTIVRRKK [TSR2]”, the thermal stability score in data set [1] (setting [4]) was -0.881; in data set [1] (cell cycle stage: mitosis) it was 0.659. Also, the “solubility change mitosis (log2)” value in data set [2] was determined as 0.0427. For the same sequence, the “solubility in G1/S (log2)” value in data set [3] is 0.00907.

As for “MAAVELEWIPETLYNTAISAVVDNYIRSRRDIRSLPENIQFDVYYKLYQQGRLCQLGSEFCELEVFAKVLRALDKRHLLHHCFQALMDHGVKVASVLAYSFSRRCSYIAESDAAVKEKAIQVGFVLGGFLSDAGWYSDAEKVFLSCLQLCTLHDEMLHWFRAVECCVRLLHVRNGNCKYHLGEETFKLAQTYMDKLSKHGQQANKAALYGELCALLFAKSHYDEAYKWCIEAMKEITAGLPVKVVVDVLRQASKACVVKREFKKAEQLIKHAVYLARDHFGSKHPKYSDTLLDYGFYLLNVDNICQSVAIYQAALDIRQSVFGGKNIHVATAHEDLAYSSYVHQYSSGKFDNALFHAERAIGIITHILPEDHLLLASSKRVKALILEEIAIDCHNKETEQRLLQEAHDLHLSSLQLAKKAFGEFNVQTAKHYGNLGRLYQSMRKFKEAEEMHIKAIQIKEQLLGQEDYEVALSVGHLASLYNYDMNQYENAEKLYLRSIAIGKKLFGEGYSGLEYDYRGLIKLYNSIGNYEKVFEYHNVLSNWNRLRDRQYSVTDALEDVSTSPQSTEEVVQSFLISQNVEGPSC [APPBP2]”, the thermal stability score in data set [1] (setting [4]) was -0.105; in data set [1] (cell cycle stage: mitosis), -0.0209. The “solubility change mitosis (log2)” value in data set [2] was -0.168. Besides, the “solubility in G1/S (log2)” value in data set [3] is -0.17.
